Laboratory results from US20240317847A1 (Bayer, published 2024).

T1: human IL-11 (Invigate, e.g., lot #C121021-19) (human, UniProt P20809 22-199)
T1 sequence: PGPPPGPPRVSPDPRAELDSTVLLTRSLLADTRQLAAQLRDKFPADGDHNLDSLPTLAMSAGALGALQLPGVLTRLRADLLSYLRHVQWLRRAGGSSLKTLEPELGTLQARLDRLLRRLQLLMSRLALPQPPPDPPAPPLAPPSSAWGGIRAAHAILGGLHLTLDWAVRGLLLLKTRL

T2: murine IL-11 (Invigate, e.g., lot #C210819-09) (mouse, UniProt P47873 22-199)
T2 sequence: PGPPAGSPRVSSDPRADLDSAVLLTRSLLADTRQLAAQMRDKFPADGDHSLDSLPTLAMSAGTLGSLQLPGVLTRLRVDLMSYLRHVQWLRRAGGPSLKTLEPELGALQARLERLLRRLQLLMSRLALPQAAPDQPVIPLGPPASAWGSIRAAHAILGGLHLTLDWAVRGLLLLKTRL

T3: human IL-11 (human, UniProt P20809 22-199)
T3 construct: bought from Invigate; also called hIL-11; hIL11
T3 sequence: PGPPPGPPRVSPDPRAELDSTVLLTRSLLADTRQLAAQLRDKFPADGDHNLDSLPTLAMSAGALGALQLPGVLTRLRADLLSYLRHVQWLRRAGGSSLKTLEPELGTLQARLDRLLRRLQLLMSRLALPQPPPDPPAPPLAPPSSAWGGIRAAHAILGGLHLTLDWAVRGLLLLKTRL

T4: murine IL-11 (mouse, UniProt P47873 22-199)
T4 construct: bought from Invigate; also called mIL-11; mIL11
T4 sequence: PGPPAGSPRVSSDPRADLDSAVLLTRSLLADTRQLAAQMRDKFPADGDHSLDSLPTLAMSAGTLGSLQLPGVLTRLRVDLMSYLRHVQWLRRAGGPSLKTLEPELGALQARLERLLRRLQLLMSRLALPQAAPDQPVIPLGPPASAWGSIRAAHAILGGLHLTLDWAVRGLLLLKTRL

B1: TPP-18068 (antibody, mouse IgG1)
heavy: EVQLLESGGGLVQPGGSLRLSCAASGFTFSSYGMHWVRQAPGKGLEWVSVISYDGSYKYYADSVKGRFTISRDNSKNTLYLQMNSLRAEDTAVYYCAAGVPDYWGQGTLVTVSSAKTTPPSVYPLAPGSAAQTNSMVTLGCLVKGYFPEPVTVTWNSGSLSSGVHTFPAVLQSDLYTLSSSVTVPSSTWPSETVTCNVAHPASSTKVDKKIVPRDCGCKPCICTVPEVSSVFIFPPKPKDVLTITLTPKVTCVVVDISKDDPEVQFSWFVDDVEVHTAQTQPREEQFNSTFRSVSELPIMHQDWLNGKEFKCRVNSAAFPAPIEKTISKTKGRPKAPQVYTIPPPKEQMAKDKVSLTCMITDFFPEDITVEWQWNGQPAENYKNTQPIMDTDGSYFVYSKLNVQKSNWEAGNTFTCSVLHEGLHNHHTEKSLSHSPGK
light: QSVLTQPPSASGTPGQRVTISCTGSSSNIGAGYDVHWYQQLPGTAPKLLIYSNNERPSGVPDRFSGSKSGTSASLAISGLRSEDEADYYCAAWDDSLNGPVFGGGTKLTVLGQPKSSPSVTLFPPSSEELETNKATLVCTITDFYPGVVTVDWKVDGTPVTQGMETTQPSKQSNNKYMASSYLTLTARAWERHSSYSCQVTHEGHTVEKSLSRADCS
notes: mIgG1, Lambda
B2: TPP-18063 (antibody, mouse IgG1, V domains shown)
VH: EVQLLESGGGLVQPGGSLRLSCAASGFTFSDYYMSWIRQAPGKGLEWVSGINWNGGSTGYADSVKGRFTISRDNSKNTLYLQMNSLRAEDTAVYYCATWDGPFDYWGQGTLVTVSS
VL: QSVLTQPPSASGTPGQRVTISCTGSSSNIGAGYDVHWYQQLPGTAPKLLIYYDDLLPSGVPDRFSGSKSGTSASLAISGLRSEDEADYYCQSYDSSLGGSVFGGGTKLTVLG
notes: mIgG1, Lambda
B3: TPP-31284 (antibody, IgG4, V domains shown)
VH: EVQLLESGGGLVQPGGSLRLSCAASGFTFSHYDMNWLRQAPGKGLEWVGVISYDGSNKFYADFVKGRFTISRDNSKNTLYLQMNSLRAEDTAVYYCARTPGSHFDYWGQGTLVTVSS
VL: QSVLTQPPSASGTPGQRVTISCSGSSSNIGNNAVNWYQQLPGTAPKLLIYYDDLRPSGVPDRFSGSKSGTSASLAISGLRSEDEADYYCSAWDDSLNGVVFGGGTKLTVL
notes: hIgG4 SPLE, lambda
B4: TPP-31285 (antibody, IgG4, V domains shown)
VH: EVQLLESGGGLVQPGGSLRLSCAASGFTFSHYDMNWLRQAPGKGLEWVGVISYDGSNKFYADFVKGRFTISRDNSKNTLYLQMNSLRAEDTAVYYCARTPGSHFDYWGQGTLVTVSS
VL: QSVLTQPPSASGTPGQRVTISCSGSSSNIGNNAVNWYQQLPGTAPKLLIYYDDLLPSGVPDRFSGSKSGTSASLAISGLRSEDEADYYCAAWDDSLNGVVFGGGTKLTVL
notes: hIgG4 SPLE, lambda
B5: TPP-31292 (antibody, IgG4, V domains shown)
VH: EVQLLESGGGLVQPGGSLRLSCAASGFTFSHYDMHWLRQAPGKGLEWVGVISYDGSNKFYADFVKGRFTISRDNSKNTLYLQMNSLRAEDTAVYYCARTPGSHFDYWGQGTLVTVSS
VL: QSVLTQPPSASGTPGQRVTISCSGSSSNIGNNAVNWYQQLPGTAPKLLIYYDDLLPSGVPDRFSGSKSGTSASLAISGLRSEDEADYYCSAWDDSLNGVVFGGGTKLTVL
notes: hIgG4 SPLE, lambda

Key:
[1] = target: T1, human IL-11 (Invigate, e.g., lot …); assay: cell-based or functional assay
[2] = target: T2, murine IL-11 (Invigate, e.g., lot …); assay: cell-based or functional assay
[3] = target: T2, murine IL-11 (Invigate, e.g., lot …); assay: Tri-complex ELISA: antibody titrated against 8 nM murine IL-11, 2 nM murine gp130-human-Fc and 2 nM murine IL11RA-murine-Fc
Description: (§1) In the Tri-complex ELISA format IL-11 antibodies are tested for their ability to inhibit the formation of a complex consisting of murine or human gp130-Fc fusion protein, with murine or human IL-11, and a murine IL11RA-Fc fusion protein. The assay format was adapted according to FIG. 18 (a, b), depending on whether murine or human IL-11 IgG antibodies were tested.
(§2) The assay was performed using High Binding microtiter plates (Greiner, #781077). In a first step, 25 μl of goat anti human IgG (Sigma, #12136), diluted 1:1000 in coating buffer (Candor, #121125) was coated on the plate at 4° C. overnight. Next day, the plate was washed one time with 50 μl PBST and then blocked with 50 μl SmartBlock (Candor, #113125) for one hour at room temperature (RT). […] After three additional washes of the coated and blocked microtiter plate with PBS-T, 25 μl of each mixture were added and the assay plate was incubated for one hour at room temperature. After three additional washes, anti-mouse-gp130 biotinylated antibody (R&D, #BAF468) or anti-human gp130 biotinylated antibody (R&D, #BAF228), both 1:1000 in 10% SmartBlock PBS-T, was added and incubated for 1 hour at RT. After three additional washes, a Streptavidin-Peroxidase conjugate (Sigma, #S5512) 1:1000 in SmartBlock PBS-T was added and incubated for one hour at room temperature. After a final three washes, AmplexRed (Fisher Scientific, A12222), 1/1000 in PBS, 0,003% H₂O₂, was added as substrate and incubated for 15 min at RT in the dark. Then, the fluorescence was measured with a plate reader at 535/595 nm. Signals from dose responses were used to calculate IC50 values using GraphPad Prism software.

[4] = target: T1, human IL-11 (Invigate, e.g., lot …); assay: SPR, Biacore T200, 25 C; antibody captured via anti-mouse Fc, IL-11 as analyte, 1:1 Langmuir fit
Description: (§3) Antibodies were captured via anti-mouse Fc IgGs (“Mouse antibody capture kit, Order No. BR100383, Cytiva) covalently amine coupled to a Series S CM5 sensor chip (Cytiva). The amine coupling was carried out according to the manufacturer's instructions using 1-ethyl-3-(3-dimethylaminopropyl) carbodiimide hydrochloride (EDC), N-hydroxysuccinimide (NHS) and ethanolamine HCl, pH 8.5 (“Amine Coupling Kit” BR-1000-50, Cytiva.). Human IL-11 (Invigate, e.g., lot #C121021-19), and murine IL-11 (Invigate, e.g., lot #C210819-09) were used as analytes. […] Based on that experiment an IL-11 concentration range was chosen to optimally determine kinetics and affinity of anti-IL-11 antibodies in multicycle kinetics mode. The sensor surface was regenerated with glycine pH 1.7 after each antigen injection. Obtained sensorgrams were double referenced (subtraction of reference flow cell signal and buffer injection) and were fitted to a 1:1 Langmuir binding model to derive kinetic data using the Biacore T200 Evaluation software or the Biacore Insight software.

[5] = target: T2, murine IL-11 (Invigate, e.g., lot …); assay: as above
Description: as §3

[6] = target: T2, murine IL-11 (Invigate, e.g., lot …); assay: Di-complex ELISA: biotinylated murine IL-11 on streptavidin plate, antibody titrated against 2 nM canine IL11RA-human-Fc (competitor)
Description: (§4) In the Di-complex ELISA format anti IL-11 antibodies are tested for the ability to interfere with the formation of complexes consisting of immobilized murine IL-11 (Invigate, e.g., lot #C210819-09) or human IL-11 (Invigate, e.g., lot #C121021-19), and murine IL11RA-Fc fusion proteins or canine IL11RA-human-Fc fusion protein (FIG. 17a, b).
(§5) The assay is performed using streptavidin coated microtiter plates (Greiner bio-one, #781997). In a first step, 10 nM biotinylated mouse IL-11 (Invigate, Germany, e.g., lot #C210819-09) or human IL-11 (Invigate, Germany, e.g., lot #C121021-19) is coated in 25 μl PBS on the plate at 4° C. overnight. Next day, the plate is washed three times with 50 μl PBST and then blocked with 50 μl SmartBlock (Candor, #113125) for one hour at room temperature (RT). After additional three washes with PBST, 25 μl of a mixture of the murine anti IL-11 antibody and recombinant canine IL11RA-Fc fusion protein (Sino Biological, #70078-D02H) in PBS-T, 10% Smartblock are added simultaneously to the plate and incubated for one hour at RT. […] After three additional washes with PBS-T, 25 μl anti-human-POD (Sigma, #A0170) in PBS-T, 10% Smartblock is added and incubated for 1 hour at RT. After a final three washes with PBS-T, 25 μl AmplexRed (Fisher Scientific, A12222), 1/1000 in PBS, 0,003% H₂O₂, is added as substrate and incubated for 15 min at RT in the dark. Then, the fluorescence is measured with a plate reader at 535/595 nm. Signals from dose responses were used to calculate IC50 values (GraphPad Prism). Efficacy was calculated as [(signal measured at lowest antibody concentration−signal measured at the highest antibody concentration)×100] divided by (signal measured at lowest antibody concentration−signal measured in the absence of IL11Ra).

[7] = target: T1, human IL-11 (Invigate, e.g., lot …); assay: Tri-complex ELISA: antibody titrated against 8 nM human IL-11, 2 nM human gp130-human-Fc and 2 nM murine IL11RA-murine-Fc
Description: as §1, §2

[8] = target: T1, human IL-11 (Invigate, e.g., lot …); assay: Di-complex ELISA: biotinylated human IL-11 on streptavidin plate, antibody titrated against 2 nM canine IL11RA-human-Fc (competitor)
Description: as §4, §5

human IL-11 [9] = target: T3, human IL-11; assay: SPR; limit told of 12 single-site germlining mutants; antigen not given, SPR run on human and mouse IL-11
murine IL-11 [10] = target: T4, murine IL-11; assay: as above
human IL-11 [11] = target: T3, human IL-11; assay: cell-based or functional assay
murine IL-11 [12] = target: T4, murine IL-11; assay: cell-based or functional assay
human IL-11 [13] = target: T3, human IL-11; assay: cell-based or functional assay; remark: listed apart in the source
murine IL-11 [14] = target: T4, murine IL-11; assay: cell-based or functional assay; remark: listed apart in the source

Efficacy (%), Stat3 reporter gene assay, human IL11RA, 0.78 nM hIL-11 [1] | IC50 [M], Stat3 reporter gene assay, HEK 293F transfected with human IL11RA, 0.78 nM hIL-11 [1] | Efficacy (%), Stat3 reporter gene assay, mouse Il11ra, 3.13 nM mIL-11 [2] | IC50 [M], Stat3 reporter gene assay, HEK 293F transfected with mouse Il11ra, 3.13 nM mIL-11 [2] | Efficacy (%) [3] | IC50 [3] | Kd [4] | Kd [5] | Efficacy (%) [6] | IC50 [6] | Efficacy (%) [7] | Efficacy (%) [8] | Kd (human IL-11 [9]) | Kd (murine IL-11 [10]) | RGA potency (mean) (human IL-11 [11]) | RGA potency (mean) (murine IL-11 [12]) | IC50, RGA 1 (human IL-11 [13]) | IC50, RGA 2 (human IL-11 [13]) | IC50, RGA 1 (murine IL-11 [14]) | IC50, RGA 2 (murine IL-11 [14]) | also measured | Binder
20.7% | 4.83e-09 M | 84.1% | 2.67e-09 M | 37.1% | 66 nM | 48 nM | 0.72 nM | 72.7% | 2.5 nM | 7.3% | 19.6% |  |  |  |  |  |  |  |  |  | B1
54.3% | 1.1e-07 M | 60% | 9.5e-08 M | 36.3% | 170 nM | 53 nM | 10 nM | 68.9% | 12 nM | 60.6% | 42% |  |  |  |  |  |  |  |  | IC50 [7]: 92 nM; IC50 [8]: 54 nM | B2
 |  |  |  |  |  |  |  |  |  |  |  | < 19 nM | < 19 nM | < 170 nM | < 170 nM | 101 nM | 131 nM | 65 nM | 17 nM |  | B3
 |  |  |  |  |  |  |  |  |  |  |  | < 19 nM | < 19 nM | < 170 nM | < 170 nM | 50 nM | 16 nM | 111 nM | 23 nM |  | B4
 |  |  |  |  |  |  |  |  |  |  |  | < 19 nM | < 19 nM | < 170 nM | < 170 nM | 234 nM | 107 nM | 52 nM | 39 nM |  | B5
